Data taken from US20250236666A1 (UNIVERSITE DE LILLE, published 2025).
Numbering of substitutions follows the chain as printed. No end group written: not given here. *: point of attachment. Biotin = O=C1N[C@H]2[C@H](CS[C@H]2CCCCC(=O)*)N1; C6spacer = C6 spacer

T1: Human Transient Receptor Potential Vanilloid 6 (TRPV6) channel protein (human, UniProt Q9H1D0 1-765, glycosylated/mature form (band around 95-100 kDa); N-glycosylation site at position 397)
T1 construct: Endogenous or vector-expressed TRPV6 of human cell lines (LNCaP, PC3M luc C6, transfected HEK); On live cells in flow cytometry and the functional assays; in whole cell lysates under denaturing conditions (monomer) in the immunoblots; also called hTRPV6
T1 sequence: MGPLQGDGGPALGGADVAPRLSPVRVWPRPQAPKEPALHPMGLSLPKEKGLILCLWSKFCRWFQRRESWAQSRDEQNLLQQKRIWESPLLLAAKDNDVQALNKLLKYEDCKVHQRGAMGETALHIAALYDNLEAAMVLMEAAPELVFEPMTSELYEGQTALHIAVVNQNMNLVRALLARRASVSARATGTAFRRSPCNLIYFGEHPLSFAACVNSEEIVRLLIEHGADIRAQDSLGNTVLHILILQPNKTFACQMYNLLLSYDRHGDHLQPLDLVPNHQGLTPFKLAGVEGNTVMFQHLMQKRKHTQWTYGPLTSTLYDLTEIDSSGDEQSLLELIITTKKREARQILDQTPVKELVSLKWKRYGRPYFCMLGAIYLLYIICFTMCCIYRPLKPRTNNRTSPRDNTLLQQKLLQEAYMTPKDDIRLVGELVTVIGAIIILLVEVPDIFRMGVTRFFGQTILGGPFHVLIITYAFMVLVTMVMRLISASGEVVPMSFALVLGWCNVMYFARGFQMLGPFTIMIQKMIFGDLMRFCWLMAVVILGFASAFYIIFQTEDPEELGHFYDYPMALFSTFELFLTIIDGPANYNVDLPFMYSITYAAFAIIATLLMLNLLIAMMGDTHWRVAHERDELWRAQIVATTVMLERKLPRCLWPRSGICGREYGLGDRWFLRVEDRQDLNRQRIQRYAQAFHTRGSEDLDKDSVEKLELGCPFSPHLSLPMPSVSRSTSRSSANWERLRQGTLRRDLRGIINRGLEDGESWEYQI

T2: Peptide 2 (Pore Forming 1) TEDPEELGHFYDYPMAK-[biot] (human)
T2 construct: Synthetic biotinylated peptide immobilized at 10 µg/mL on streptavidin plates; also called P2
T2 peptide: TEDPEELGHFYDYPMAK-biotin

T3: Peptide 3 (Pore Forming 2) [biot]-[C6spacer]-DGPANYNVDLPFMYS (human)
T3 construct: Synthetic biotinylated peptide immobilized at 10 µg/mL on streptavidin plates; also called P3
T3 peptide: {Biotin-C6spacer}-DGPANYNVDLPFMYS

B1: Mouse monoclonal anti-TRPV6 antibody 82 (mAb82) (antibody, mouse IgG2a, kappa, V domains shown)
VH: EVKLLESGGGLVQPGGSLKLSCAASGFDFRRYWMSWVRQAPGKGLEWIGEINPDSSTINYTPSLKDKFIISRDNAKNTLYLQMSKVRSEDTALYYCARSASSHYFDYWGQGTTLTVSS
VL: DIVMSQSPSSLAVSVGEKVTMSCKSSQSLLYSSNQKNYLAWYQQKPGQSPKLLIYWASTRESGVPDRFTGSGSGTDFTLTISSVKAEDLAVYYCQQYYRYPTFGGGTKLEIKR
notes: also called mab82a; No. 82a
B2: Monoclonal antibody P2-R4-G08 (antibody, human IgG1, kappa, V domains shown)
VH: EVQLVESGGSLVKPGGSLRLSCAASGFTFSNYGMNWVRQAPGKGLEWISGISGSSRSIGYADFVKGRFTISRDNAKNSLYLQMNSLRAEDTAVYYCVRSSYYYGMDVWGRGTLVTVSS
VL: QSVLTQPASVSGSPGQSITISCAGTSSDVGGYGQVSWYQQHPGKAPKLMIYSDSSRPSGVSNRFSGSKSGNTASLTISGLQAEDEADYYCSSYTSYSTRVFGGGTKLEIKR
notes: scFv from phage display subcloned into Human IgG1 format, expressed in HEK293T; also called P2-R4-G8
B3: Monoclonal antibody P3-R5-H03 (antibody, human IgG1, kappa, V domains shown)
VH: B2 VH with Y32A, G50Y, S57Y, G59N, Y101S, Y102S
VL: B2 VL with Y32G, G33Y, Q34Y, S52G, S55N, Y93N, S95Y
notes: scFv from phage display subcloned into Human IgG1 format, expressed in HEK293T; also called P3-R5-H3
B4: Monoclonal antibody P3-R5-E06 (antibody, human IgG1, kappa, V domains shown)
VH: EVQLVESGGSLVKPGGSLRLSCAASGFTFSNAYMNWVRQAPGKGLEWISSISGSSSYIGYADFVKGRFTISRDNAKNSLYLQMNSLRAEDTAVYYCVRSSYYNYDYGDAMDVWGRGTLVTVSS
VL: B2 VL with Y32N, G33Y, Q34Y, S52Q, S55N, S95G
notes: scFv from phage display subcloned into Human IgG1 format, expressed in HEK293T; also called P3-R5-E6
B5: Monoclonal antibody P3-R4-E11 (antibody, human IgG1, kappa, V domains shown)
VH: EVQLVESGGSLVKPGGSLRLSCAASGFTFSNSGMNWVRQAPGKGLEWISGISGSSRYIGYADFVKGRFTISRDNAKNSLYLQMNSLRAEDTAVYYCVRSNYGGMDVWGRGTLVTVSS
VL: B2 VL with Q34Y, S52Y, S55Y, Y96Q
notes: scFv from phage display subcloned into Human IgG1 format, expressed in HEK293T
B6: Monoclonal antibody P3-R4-F03 (antibody, human IgG1, kappa, V domains shown)
VH: EVQLVESGGSLVKPGGSLRLSCAASGFTFSNNYMNWVRQAPGKGLEWISSIGGSSRDIYYADFVKGRFTISRDNAKNSLYLQMNSLRAEDTAVYYCVRSNSGMDVWGRGTLVTVSS
VL: B2 VL with Y32S, G33Y, Q34S, S52Y, S55Y, Y93N, S95Q, Y96S
notes: scFv from phage display subcloned into Human IgG1 format, expressed in HEK293T; also called P3-R4-F3

What was measured:
[1] = target: T1, Human Transient Receptor Potential …; test: immunoblotting of LNCaP whole cell lysates, denaturing conditions
[2] = target: T2, Peptide 2 (Pore Forming 1) …; test: dose-response ELISA, biotinylated peptide on streptavidin plate, IgG 0.00282 to 500 nM, anti-Fab-HRP
Method: (§1) TRPV6 biotinylated peptides were immobilized at 10 μg/mL on a streptavidin coated plate. IgGs binding was tested at different concentrations (from 0.00282 to 500 nM) and detected using an anti-Fab-HRP (Sigma A0293).
(§2) IgGs binding to Human TRPV6 peptides was tested by ELISA. TRPV6 biotinylated peptides were immobilized at 10 μg/mL on a streptavidin coated plate. IgGs binding was tested at different concentrations (from 0.00282 to 500 nM) and detected using an anti-Fab-HRP (Sigma A0293).

[3] = target: T3, Peptide 3 (Pore Forming 2) …; test: as above
Method: as §1, §2

| Binder | EC50 [3] [nM] | further results |
| --- | --- | --- |
| B1 |  | binding result [1]: binds |
| B2 |  | EC50 [2]: 0.49 nM |
| B3 | 0.36 |  |
| B4 | 0.98 |  |
| B5 | 0.9 |  |
| B6 | 0.86 |  |
